From the supplement of paper PMC12042874
± gives the uncertainty stated by the source.

Assay: amyloid nucleation score (Sup35N fusion, yeast selection) (log enrichment); library NNK2; higher = more nucleation; inactive = no reads after selection
In short: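 The nucleation score is a DiMSum log enrichment of output over input reads, centred on the mode score of non-aggregating sequences. Sequences under 100 input reads were excluded, and reads came from Illumina sequencing of plasmid inserts. Psi-negative yeast expressing Sup35N fused to peptides of 20 random codons were induced with 100 μM copper sulfate for 24 hours and grown 7 days at 30°C on medium lacking adenine and uracil. Random libraries had three technical output replicates.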

Substance	amyloid nucleation score
FLTYRLSNYYTPGKFCVYFK	inactive
FWVRNVDTLWLSPRYVTWSG	-0.323 ± 0.33
DSLPSRNSNIGWIQWILWGI	-0.121 ± 1.1
SAKHTWVISR	0.098 ± 0.79
LMDQSTFNRVKYVGHWVVSG	1.74 ± 0.087
FCGDILSVT	0.695 ± 0.66
VVTGSMDSCGQPKVSSSSAS	0.294 ± 0.38
TIILG	-0.637 ± 0.27
CSYVNRLWVDSSVGHEEDAG	inactive
SEWEYPNINE	inactive
MGLYLWGFRTTSICGVLMDY	-1.66 ± 0.76
GRKCVTYSCPF	0.185 ± 0.39
GYDGRFIASRSVYFKARIGG	-0.056 ± 0.29
AFYGL	inactive
IGWGYRWVRWL	-0.415 ± 0.5
RILQSGLGV	0.336 ± 0.56
DLVRYFC	4.26 ± 0.055
KTKVL	0.348 ± 0.65
ISLSLFRNGPIRMAKGSAWM	6.081 ± 0.036
WALTHVSLYRFGER	4.32 ± 0.093
KCDYPGFWMPGQSYKDSILD	-1.61 ± 1.1
WLCDWLASIWCMFGLSGCSR	0.232 ± 0.35

Substance	amyloid nucleation score
CISVVFVRHNGNFVSFNELV	6.412 ± 0.05
NRKCSAESMTEGVRPLDSHY	inactive
PKSYWLSISRLKPVSQYYLR	1.21 ± 0.24
IGFYFLNRRKIFLASTGILM	inactive
CDYYLFLCIYRSQNVGTEGG	6.783 ± 0.063
LNTYMAYSGWIVTN	-0.148 ± 0.33
VFRGAVSWTVLIGDNKVVLY	0.674 ± 0.45
FIRQKGYTVFLVCGNYVWMT	5.979 ± 0.056
LSSIWVSSYHLSWLKSW	-0.048 ± 0.42
HIRGVIVGRAPDRCI	inactive
TRLDVQLGHGIGSV	0.092 ± 1.1
NQLIGHVFSFVDKSKSFSSS	0.243 ± 0.56
TFVKRIRYCFYLS	6.386 ± 0.023
HFRSLALISLAEKFITRIEK	-0.13 ± 0.22
VSTRILSCSNEFCYIIGAMV	2.59 ± 0.15
CRSHVAGFDAHTNILLKPIC	-0.346 ± 0.64
YSTEPSRHGIWNG	-0.735 ± 0.56
RMIYGSRRFDVDIFYFGIRN	4.24 ± 0.074
FGYKR	-0.828 ± 0.61
SQFLIMTEDR	0.123 ± 0.34
SIWLFYHILVFVLMPFAVAF	inactive
SNRCLIIFLILC	5.92 ± 0.077

Substance	amyloid nucleation score
YWVGIDRHFHGRQYCKAGA	1.11 ± 0.45
FNLLARMIVYGIVLSQGKTG	-0.01 ± 0.63
SRSVFIRSLAVITVIWILT	1.34 ± 0.13
EYRSDCMDYLGDVCWCPNIL	inactive
GLGLICLQMGGFCMWRFRRM	0.197 ± 0.24
SLCMHTAVFHS	0.092 ± 0.32
TVRLVWSWMHTPLFGPVTCA	0.073 ± 0.56
WVGGYIQLFYVTRPQVSGRP	3.17 ± 0.061
QSVKLFNSPTSAELILGTKE	-0.982 ± 0.78
FIRWSLWR	-0.012 ± 1.1
KTPGSHVGLWSMPGRSYPSA	0.401 ± 0.45
DGKNYVKTNSNGIRNGMSIW	-0.576 ± 0.76
ASGNRTFVVMLLNRRKMMST	0.008 ± 0.48
RNYRIETSSNVIKV	0.292 ± 0.65
VKPWFS	-0.145 ± 1.1
RLSLGKGAVTDT	0.837 ± 0.19
WNMYNRIWFLGHKLLWGSPT	-0.414 ± 0.76
VAWMFMASFRSLSMMVSISR	0.01 ± 0.37
SVFCCLYLYSG	9.035 ± 0.023
KVLCWLRVRYLKGLGQGSAC	0.358 ± 0.31
KSWHPRFQSDMKFHLFCLVV	-0.19 ± 0.56
NRDKF	-1.07 ± 0.28

Substance	amyloid nucleation score
AGPSCL	0.537 ± 0.22
SLLRLIFMLRRGDIHGYCRG	5.84 ± 0.084
DGKVSC	inactive
HTYVRVYLRGELCHPNCMNA	6.348 ± 0.032
YIVDGVGCNCHTGSIVEMSL	-0.618 ± 0.32
YMSVSSKGQRVCFTT	-0.488 ± 0.63
GIIGYDVKNKHHLTVGLRFI	-0.285 ± 0.24
MLNLVATVLWDWSVDCSWQV	1.5 ± 0.11
SRLCFWSVGFNKTQQVEPVR	-1.33 ± 1.1
TVHCGMQWWLVARRPRNEAQ	1.25 ± 0.38
IRYPIPWFY	inactive
SLKSAFQMKVISYLVEWLVS	-0.6 ± 0.36
AGWNLFLEGVYVW	-0.387 ± 1.1
NMTHEA	-0.219 ± 0.63
YSFYAKSW	inactive
RPKLGSSVVRHVMFIGWGCG	0.797 ± 0.43
AFDTTPKC	0.275 ± 0.32
PKPLVGMLCCHSMTRGKVTL	3.28 ± 0.07
FPFKCTSQDSFFFNFKWSRR	3.25 ± 0.17
FSPLC	1.83 ± 0.14
